Measured values taken from the RNAGym collection of RNA variant scans (doi:10.7554/elife.80360).

B1: HDV Ribozyme (parent)
chain: GGCCGGCAUGGUCCCAGCCUCCUCGCUGGCGCCGGCUGGGCAACAUUCCGAGGGGACCGUCCCCUCGGUAAUGGCGAAUGGGACCCA

Variants of: B1
Experiment: self-cleavage, relative activity (ratio to wild type); higher = more cleavage; co-transcriptional

Variant | self-cleavage
GGCAGGCAUGGUCCGAGCCUCCUCGCUGGCGCCGGCUGGGCAACAUUCCGAGGGGACCGUCCCCUCGGUAAUGGCGAAUGGGACCCA | 0.166
GGCCGGCAUGGUCCCAGCCUCUUCGCUGGCGCCGGCUGGGCAACAUUCCGAGGGGACCGUCCCCACGGUAAUGGCGAAUGGGACCCA | 0.831
GGCCGGCAUGGUCCCAGCGUCCUCGCUGGCGCCGGCUGGGCAACAUUCCGAGGGGACCGUCCGCUCGGUAAUGGCGAAUGGGACCCA | 0.229
GGCCGGCAUGGUCCCAGCCGCCUCGCUGGCGCCGGCUGAGCAACAUUCCGAGGGGACCGUCCCCUCGGUAAUGGCGAAUGGGACCCA | 0.0396
GGCCGGGAUGGUCCCAGCCUCCUCGCUGGCGCCGGCUGGGAAACAUUCCGAGGGGACCGUCCCCUCGGUAAUGGCGAAUGGGACCCA | 0
GGCCGGCAUGGUCCCAGCCCCCUCGCUGGCGCCGGCUGGGCGACAUUCCGAGGGGACCGUCCCCUCGGUAAUGGCGAAUGGGACCCA | 0
GGCCGGCAUGGUCCCAGCCUCCUCGCUGGCGCCGGCUGGGCAACAUUCCGAGGGGACCGUCCGCUCGGUAAUGGGGAAUGGGACCCA | 0.0489
GGCCGGCAUGGUGCCGGCCUCCUCGCUGGCGCCGGCUGGGCAACAUUCCGAGGGGACCGUCCCCUCGGUAAUGGCGAAUGGGACCCA | 0.0831
GGCCGGCAUGGUCCCAGCCUCCUCGCUGGCGCCGGCUGGGCAACAUUCCGAGGGGACGGUCCCCUCGGUAAUGGCGAAUGGGCCCCA | 0.386
GGCCGGCAUGGUCCCAGCCUCCUCGCUUGCGCCGGCUGGGCAACACUCCGAGGGGACCGUCCCCUCGGUAAUGGCGAAUGGGACCCA | 0
GGCCGGCAUGGUCCCAGCCUCCUCGCUGGCGCCGGCUGGGCAACAUUCCGAGGGUACCGUCCCCUCGGUAAUGGCGAAUGGGACCCU | 1.1
GGCCGGCAUCGUCCCAGCCUCCUCGCUGGCGCCGGCUGGGCAACAUUCCGAGGGGACCGUCGCCUCGGUAAUGGCGAAUGGGACCCA | 0.719
GGCCGGCAUGGUCCCAGCCUCCUCGCUGUCGCCGGCUGGGCAACAUUCCGAGGGGACCGUCCCGUCGGUAAUGGCGAAUGGGACCCA | 0.0739
GGCCGGCAUGGUCCCAGCCUCCUCGCUGGCGCCGGCUGGGCAACAUUCAGAGGGGACCGUCCCCUCGGUAAUGGGGAAUGGGACCCA | 0.128
GGCCGGCAUGGUCCCAGCCUCUUCGCUGGCUCCGGCUGGGCAACAUUCCGAGGGGACCGUCCCCUCGGUAAUGGCGAAUGGGACCCA | 0.0817
GGCCGGCAUGGUCCCAGCCUCCUCGCUGGCGCCGGCUGGGCAACAUUCCGAGGGGACCGUCCGCUCGGUAAUGGCGUAUGGGACCCA | 0.277

Variant | self-cleavage
GGCCGGCAUGGUCCCAGCCUCCUCGCUGGCGCCGGCUGGGCAACAUUCCGAGGGGACCGUCCGCUCGAUAAUGGCGAAUGGGACCCA | 0.366
GGCCGGCAUGGUCCCAGCCUCCUCGCUGGCGCCGGCUGGGCAACAUUCCGAGGGGACCCUCCCCUCGGUAAUGCCGAAUGGGACCCA | 0.0678
GGCCGGCAUGGUCCCAGCCUCCUCGCUGGCGCCGGCUGGGCAACAUUGCGAGGGAACCGUCCCCUCGGUAAUGGCGAAUGGGACCCA | 0.888
GGCCGGCAUGGUCCCAGCCUCCUCGCUGUCGCCGGCUGGGCAACAUUCCGAGGGGACCCUCCCCUCGGUAAUGGCGAAUGGGACCCA | 0.104
GGCCGGCAUGGUCCCAGCCUCCUCGCUGGCGCCAGCUGGGCAACAUUCCGAGGGGAGCGUCCCCUCGGUAAUGGCGAAUGGGACCCA | 0.0997
GGCCGGCAUGGUCCCAGCCUCCUCGCUGGCGUCGGCUGGGCAACAUUCCGAGGGGACCGUCCCCUCGGUAAUGGCGGAUGGGACCCA | 0.73
GGCGGGCAUGGUCCCAGCCUCCUCGCUGGCGCCGGCUGGGCAACAUUCCGAGGGGACCGUCCCCUCGGUGAUGGCGAAUGGGACCCA | 0.59
GGCCGGCAUGGUCCCAGCCUCCUCGCUGGCGCCGGCUGGGCAACAUUCCGAGGGGACCGUCGCCUCGGUAAUGGCGAAUAGGACCCA | 0.185
GGCCGGCAUGGUCCCAGCCUCCUCGCUGGCGCCAGCUGGGCAACAUUCCGAGGGGACCGUCCCCUCGGUAAUGGCGAAUGUGACCCA | 0.07
GGCCGGCAUGGUCCCAGCCUCCGCGCUGGCGCCGGCUUGGCAACAUUCCGAGGGGACCGUCCCCUCGGUAAUGGCGAAUGGGACCCA | 0.0583
GUCCGGCAUGGUCCCAGCCUCCUCGCCGGCGCCGGCUGGGCAACAUUCCGAGGGGACCGUCCCCUCGGUAAUGGCGAAUGGGACCCA | 0.0198
UGCCGGCAUGGUCCCAGCCUCCUCGCUGGCGCCGGCUGGGCAACAUGCCGAGGGGACCGUCCCCUCGGUAAUGGCGAAUGGGACCCA | 0.405
GGCCGGCAUGGUCCCAGCCUCCUCGCUGGCGCCGGCUGGGCGACAUUCCGAGGGGACCGUCCCCUCGGUAAUGGCGAAUGCGACCCA | 0.0386
GGCCGGCAUGGUCUCAGCCUCCUCGCUGGCGCCGGCUGGGCAACAUUCCGAGGGGACCGUCCCCUCGGUAAUGGCGAAUGCGACCCA | 0.806
GGCCGGCAUGGUCCCAGCCUCCUCGCUGGCGCCGGCCGGGCAACAUUCCGAGGGGACCGCCCCCUCGGUAAUGGCGAAUGGGACCCA | 0.864
GGCCGGCAUGGUCCCAGCCUCCUCGCUGGCGCCGGCUAGGCAACAUUCCGAGGGGACCGUCCCCUCGGUAAUGGCGAAUGGGACCUA | 0.138
